Laboratory results taken from patent publication US20250197455A1.

Legend:
[1] = biological target: BG505 N28 JCBv3 660; test: supernatant ELISA; row BG505.RnS7Mut-N28-JCBv3-660
[2] = biological target: BG505 N28 502 660-665; test: supernatant ELISA; row BG505.RnS7Mut-N28-502-660-665
[3] = biological target: 6931-DS-N28-502-660-665; test: supernatant ELISA; row scFc-3C-6931-DS-28-502-660-665
[4] = biological target: 6931-DS-N28-JCBv3-660; test: supernatant ELISA; row scFc-3C-6931-DS-28_JCB04V3-660
[5] = biological target: BG505 N28 JCBv2 660-665; test: supernatant ELISA; row BG505.RnS7Mut-N28-JCBv2-660-665
[6] = biological target: BG505 glycan-base trimer, VRC 7873 (4571_RnS7Mutv1-2G-3Mut-N28-JCBv3-N660-N665.667_613S_620S) (BG505-based) (HIV-1 (BG505, Clade A)); test: supernatant ELISA; row BG505.RnS7Mut-N28-JCBv3-660-665
[7] = biological target: protein-base BG505 trimer, BG505-RnS7Mutv1-DS-SOSIP-2G-3Mut (HIV-1 (BG505, Clade A)); test: supernatant ELISA; row BG505-RnS(7MutV1)-2G-3mut-DS_SOSIP-scFc
[8] = biological target: ConC glycan-base trimer, VRC 7678 (6931_DS-N28-JCBv3-N660-N665.667) (ConC based) (HIV-1 (consensus clade C, ConC)); test: supernatant ELISA; row scFc-3C-6931-DS-28_JCB04V3-660-665

Substance | ELISA OD450 (raw) [1] | ELISA OD450 (raw) [2] | ELISA OD450 (raw) [3] | ELISA OD450 (raw) [4] | ELISA OD450 (raw) [5] | ELISA OD450 (raw) [6] | ELISA OD450 (raw) [7] | ELISA OD450 (raw) [8]
3BNC117 (antibody) | 1.01 OD450 | 0.841 OD450 | 1.03 OD450 | 1.13 OD450 | 0.952 OD450 | 0.981 OD450 | 1.04 OD450 | 
35O22 (antibody) | 0.728 OD450 | 0.785 OD450 | 0.916 OD450 |  | 0.628 OD450 | 0.632 OD450 | 1.01 OD450 | 0.954 OD450
F105 (antibody) | 0.196 OD450 | 0.106 OD450 | 0.337 OD450 | 0.432 OD450 | 0.141 OD450 | 0.157 OD450 | 0.134 OD450 | 
N6 (antibody) | 0.771 OD450 | 0.666 OD450 | 0.876 OD450 | 0.918 OD450 | 0.816 OD450 | 0.795 OD450 | 0.811 OD450 | 
PGDM1400 (antibody) | 1.09 OD450 | 0.982 OD450 | 0.681 OD450 | 0.861 OD450 | 1.03 OD450 | 1.07 OD450 | 0.985 OD450 | 0.949 OD450
PGT122 (antibody) | 0.906 OD450 | 0.864 OD450 |  |  | 1 OD450 | 0.874 OD450 | 1.05 OD450 | 1.48 OD450
PGT145 (antibody) | 0.427 OD450 | 0.531 OD450 | 0.938 OD450 |  |  | 0.219 OD450 | 0.683 OD450 | 
VRC26.25 (antibody) | 0.652 OD450 | 0.555 OD450 | 0.874 OD450 | 0.979 OD450 | 0.544 OD450 | 0.564 OD450 | 0.71 OD450 | 0.798 OD450
VRC34.01 (antibody) | 0.648 OD450 | 0.437 OD450 | 0.718 OD450 | 0.89 OD450 | 0.729 OD450 | 0.682 OD450 | 0.783 OD450 | 1.05 OD450
